Test results reported in the supplement of paper PMC9732359.
± gives the uncertainty stated by the source.

Test: protein stability index of a GFP-peptide fusion (yeast GPS) (PSI 1-4); higher = more stable; sorted into four equal gates, so the index is relative within each strain
Summary of the method: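 Tiled 17-residue peptides from yeast proteins were fused downstream of GFP on a plasmid that also expresses Cherry, and the pooled library was carried in yeast. Mid-log cultures grown in leucine-free medium were sorted into four equal gates by GFP/Cherry fluorescence ratio. Plasmids from each gate were PCR-amplified and Illumina-sequenced, and reads were assigned to strains by barcodes. Each peptide's protein stability index is the sum, over gates, of the gate's read frequency multiplied by its gate number.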

Sequence	protein stability index (doa10∆)	protein stability index (pdr5∆)	protein stability index (san1∆)	protein stability index (ubr1∆)
SSTLGIDLEDIKEELTK [PCI8]	2.93 ± 0.091	3.1 ± 0.094	3.17 ± 0.1	3.02 ± 0.1
PVRPVRVRHEDVETVKR [RPC53]	2.9 ± 0.077	2.97 ± 0.048	2.88 ± 0.055	3.04 ± 0.037
GKRQVLIRPSSKVIIKF [RPS22A]	3.04 ± 0.068	2.4 ± 0.046	2.78 ± 0.057	2.95 ± 0.042
DRKHVAALRTVKSLVDN [RPL9B]		2.83 ± 0.22	2.83 ± 0.14	
ILRDYGPQEAANAMNRM [RPO31]		1.83 ± 0.26	2.86 ± 0.22	
KRAKEFITTLLKSLYSF [SIN4]	2.19 ± 0.039	1.94 ± 0.05	1.83 ± 0.07	1.87 ± 0.032
MSLSNKTVKELRQLLKE [RRI1]	1.95 ± 0.094	1.42 ± 0.083	1.28 ± 0.11	1.85 ± 0.15
DPTKVTEFEFYLLEELE [SSN8]	3.19 ± 0.065	3.28 ± 0.058	3.21 ± 0.068	3.25 ± 0.049
GPAAAIEFEYDPWNKLK [RPB3]	3.04 ± 0.081	3.08 ± 0.078	3.05 ± 0.052	3.25 ± 0.065
VSTPEKWDITTRNSNNL [BRR2]	3.27 ± 0.14	3.19 ± 0.17	3.26 ± 0.082	3.04 ± 0.069
IFLQQFLQELLKKVQQQ [SWI1]	2.94 ± 0.098	2.37 ± 0.12	2.56 ± 0.11	2.5 ± 0.13
TMRKISSETDDDHSQVI [DSN1]	2.91 ± 0.048	3.24 ± 0.064	3.1 ± 0.035	3.15 ± 0.055
LLVIGGNQRKILQYSRT [YJR042W/NUP85]	1.86 ± 0.091	2.27 ± 0.096	1.46 ± 0.14	1.4 ± 0.072
KCSATNRIIKADDHASV [RPS21A]	2.92 ± 0.053	2.96 ± 0.053	3.13 ± 0.049	3.11 ± 0.039
FKNDFNSFYYTSLLYLS [RPN9]	1.33 ± 0.049	1.81 ± 0.073	2.19 ± 0.11	1.25 ± 0.099
PFQVSSFVKETKLHSGD [SRB8]	2.96 ± 0.088	2.77 ± 0.082	2.8 ± 0.085	2.91 ± 0.061
VDSWDREFLKVDQEMLY [SKP1]	3.43 ± 0.12	3.29 ± 0.078	3.21 ± 0.1	3.26 ± 0.086
LMETLRTLRRKGDINPE [RPB2]	3.08 ± 0.1	3.37 ± 0.079	2.85 ± 0.088	3.16 ± 0.069
TTTKIIDSTDHIRKASS [LRP1]	2.19 ± 0.048	2.07 ± 0.039	1.64 ± 0.066	2.32 ± 0.038
VPSFLRPDITMYCRPAP [GRR1]	2.12 ± 0.053	2.39 ± 0.045	2.1 ± 0.057	2.38 ± 0.051
ILYSFKLSGKLLKEEKI [YML103C/NUP188]	1.4 ± 0.059	1.6 ± 0.063	2.11 ± 0.1	2.49 ± 0.1
PGSRASSRFIKGGSLYG [RPN2]	2.19 ± 0.12	1.92 ± 0.11	1.45 ± 0.11	2.14 ± 0.069

Sequence	protein stability index (doa10∆)	protein stability index (pdr5∆)	protein stability index (san1∆)	protein stability index (ubr1∆)
GSGLLKLSEIILNINNS [SWI1]	2.69 ± 0.089	2.69 ± 0.081	2.4 ± 0.098	2.85 ± 0.081
PNSNVELAGGNASLTIE [SMC1]	2.91 ± 0.091	3.06 ± 0.2	2.95 ± 0.071	3.04 ± 0.27
VNGPNVHPGANYLLKRN [RPO31]	3.29 ± 0.056	3.21 ± 0.068	3.26 ± 0.044	3.21 ± 0.037
LLKLERKKTEAVARLKS [SNF2]	1.89 ± 0.068	2.14 ± 0.083	2.06 ± 0.091	1.97 ± 0.061
ISHDDLQAVAVAVSTKK [FAS2]	1.47 ± 0.29	1.48 ± 0.099	1.19 ± 0.12	1.32 ± 0.23
IYATFLNESDCLEACSF [YDL116W/NUP84]	2.56 ± 0.091	2.85 ± 0.087	2.6 ± 0.13	2.59 ± 0.057
IFIRQLKENEENEDGNI [BRR2]	3.5 ± 0.094	3.37 ± 0.19	3.2 ± 0.067	2.01 ± 0.087
VRTRGGNKKYRALRIET [RPS8A]	2.71 ± 0.032	2.52 ± 0.03	2.71 ± 0.031	2.853 ± 0.022
VQDRGLSAVAQAESMKF [RPS3]	3.16 ± 0.11	3.16 ± 0.11	2.73 ± 0.15	2.9 ± 0.075
LERYVKRCMDDLNPLKT [RPO31]	3.08 ± 0.078	3.15 ± 0.058	3.27 ± 0.043	3.16 ± 0.041
VFEISENNSDSNSNNNG [SWI1]	2.89 ± 0.15	3.03 ± 0.11	3.15 ± 0.12	3.28 ± 0.15
ETLAYNSLKETLQDFHL [SNF2]	2.88 ± 0.054	3.04 ± 0.058	2.61 ± 0.055	2.7 ± 0.042
QREEAKKVVKKAFEERH [RPL27A]		3.78 ± 0.2	2.63 ± 0.29	
LQAQLDYLNAELGEFFV [FAS2]	3.06 ± 0.18		2.94 ± 0.17	3.18 ± 0.16
VRDTSPHGISVFLSNLV [BRR2]	1.35 ± 0.1	1.54 ± 0.077	2.55 ± 0.078	2.34 ± 0.049
VVNSNFAKEHNATVNLA [YJR042W/NUP85]	2.82 ± 0.1	2.32 ± 0.12	2.75 ± 0.078	2.67 ± 0.13
TVALREIRRFQKSTELL [HHT1]	2.99 ± 0.098	2.91 ± 0.087	3.07 ± 0.068	3.02 ± 0.078
DQKETKKGESEKDASGK [YOR098C/NUP1]	3.45 ± 0.18	3.37 ± 0.15	3.49 ± 0.097	3.37 ± 0.1
SSFSLTFFPRCIIAVSC [POP1]	1.93 ± 0.029	1.86 ± 0.035	2.07 ± 0.054	2.03 ± 0.037
YDGDTVTFSPTGRLFQV [PRE5]	2.96 ± 0.089	2.98 ± 0.12	2.94 ± 0.14	3.08 ± 0.061
KLRAARAKAMKFADGFL [RPS3]	3.3 ± 0.17	3.03 ± 0.14	2.44 ± 0.29	3.16 ± 0.065
IKAPTVAADGKLVTYIV [YLR335W/NUP2]	1.61 ± 0.07	1.92 ± 0.059	1.55 ± 0.084	2.16 ± 0.048
